Experimental data from publication PMC8990011.

Molecular target: Bax, endogenous in HeLa cells (human (endogenous in HeLa)) (UniProt Q07812)
Sequence (Q07812 whole entry): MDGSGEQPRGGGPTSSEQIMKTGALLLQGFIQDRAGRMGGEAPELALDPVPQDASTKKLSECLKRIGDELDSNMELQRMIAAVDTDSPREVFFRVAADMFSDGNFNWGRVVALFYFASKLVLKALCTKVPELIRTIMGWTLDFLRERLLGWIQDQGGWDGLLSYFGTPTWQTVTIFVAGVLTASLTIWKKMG

inhibition of cBid- and Bim-triggered Bax-pore formation in ANTS/DPX liposomes (100 nM Bax, 20 nM cBid or Bim, 8-500 nM Bcl-xL protein), IC50: 80 nM
Substance: 6xHis-Bcl-xL^K87D (from UniProt Q07817-1 1-233) (natural protein)
